# The supplement of paper PMC10567573
# B1: C2CD2L (parent)
# chain: EPAGSLRELGVWRSLLRLRATRAG
# B2: FAM164C (parent)
# chain: YPHCTGISQQDPESDSQGQGNGLF
# Variants of: B1
# Assay: protein stability index of a GFP-peptide fusion (GPS, HEK-293T) (PSI 1-6); higher = more stable
# Settings: c terminus: a fixed tail appended
# 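Also: lentivirally expressed fusions sorted by FACS into six bins by GFP to DsRed ratio, PSI derived from sequencing read proportions per bin multiplied by bin number.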
row,Variant,protein stability index
1,EPAGYLRELGVWRSLLRLRATRAG,2.73
2,EPAGELRELGVWRSLLRLRATRAG,3.05
3,EPAGWLRELGVWRSLLRLRATRAG,1.82
4,EPAGDLRELGVWRSLLRLRATRAG,2.56
5,EPAGVLRELGVWRSLLRLRATRAG,2.04
6,EPAGCLRELGVWRSLLRLRATRAG,2.36
7,EPAGFLRELGVWRSLLRLRATRAG,1.21
8,EPAGRLRELGVWRSLLRLRATRAG,2.03
9,EPAGALRELGVWRSLLRLRATRAG,2.31
10,EPAGSLREFGVWRSLLRLRATRAG,3.97
11,EPAGSLREGGVWRSLLRLRATRAG,3.69
12,EPAGSLREMGVWRSLLRLRATRAG,2.07
13,EPAGSLRECGVWRSLLRLRATRAG,3.04
14,EPAGSLREQGVWRSLLRLRATRAG,2.77
15,EPAGSLREPGVWRSLLRLRATRAG,3.7
16,EPAGSLRETGVWRSLLRLRATRAG,2.92
17,EPAGSLRESGVWRSLLRLRATRAG,3.16
18,EPAGSLREWGVWRSLLRLRATRAG,2.37
19,EPAGSLREIGVWRSLLRLRATRAG,1.71
20,EPAGSLREEGVWRSLLRLRATRAG,3.3
21,EPAGSLREYGVWRSLLRLRATRAG,4.48
22,ERAGSLRELGVWRSLLRLRATRAG,2.41

row,Variant,protein stability index
1,EEAGSLRELGVWRSLLRLRATRAG,2.5
2,EVAGSLRELGVWRSLLRLRATRAG,1.82
3,ETAGSLRELGVWRSLLRLRATRAG,1.93
4,EGAGSLRELGVWRSLLRLRATRAG,1.1
5,EYAGSLRELGVWRSLLRLRATRAG,2.04
6,EAAGSLRELGVWRSLLRLRATRAG,2.08
7,ENAGSLRELGVWRSLLRLRATRAG,1.5
8,EHAGSLRELGVWRSLLRLRATRAG,1.42
9,EPMGSLRELGVWRSLLRLRATRAG,2.19
10,EPPGSLRELGVWRSLLRLRATRAG,1.63
11,EPWGSLRELGVWRSLLRLRATRAG,1.97
12,EPTGSLRELGVWRSLLRLRATRAG,2.93
13,EPFGSLRELGVWRSLLRLRATRAG,1.47
14,EPKGSLRELGVWRSLLRLRATRAG,2.04
15,EPVGSLRELGVWRSLLRLRATRAG,2.77
16,EPLGSLRELGVWRSLLRLRATRAG,1.59
17,EPIGSLRELGVWRSLLRLRATRAG,2.84
18,EPEGSLRELGVWRSLLRLRATRAG,2.65
19,EPAGSLPELGVWRSLLRLRATRAG,3.35
20,EPAGSLAELGVWRSLLRLRATRAG,3.16
21,EPAGSLGELGVWRSLLRLRATRAG,3.07
22,EPAGSLFELGVWRSLLRLRATRAG,1.14

row,Variant,protein stability index
1,EPAGSLLELGVWRSLLRLRATRAG,2.44
2,EPAGSLMELGVWRSLLRLRATRAG,2.92
3,EPAGSLHELGVWRSLLRLRATRAG,2.67
4,EPAGSLIELGVWRSLLRLRATRAG,1.64
5,EPAGSLKELGVWRSLLRLRATRAG,2.07
6,EPAGSLWELGVWRSLLRLRATRAG,1.75
7,EPAGSLCELGVWRSLLRLRATRAG,1.74
8,EPAGSLEELGVWRSLLRLRATRAG,2.29
9,EPANSLRELGVWRSLLRLRATRAG,1.98
10,EPADSLRELGVWRSLLRLRATRAG,3.19
11,EPAMSLRELGVWRSLLRLRATRAG,2.39
12,EPATSLRELGVWRSLLRLRATRAG,2.4
13,EPAESLRELGVWRSLLRLRATRAG,3.52
14,EPACSLRELGVWRSLLRLRATRAG,2.04
15,EPASSLRELGVWRSLLRLRATRAG,2.4
16,EPAISLRELGVWRSLLRLRATRAG,2.07
17,EPAYSLRELGVWRSLLRLRATRAG,3.48
18,EPAPSLRELGVWRSLLRLRATRAG,3.02
19,EPALSLRELGVWRSLLRLRATRAG,1.97
20,EPAFSLRELGVWRSLLRLRATRAG,2.49
21,EPAQSLRELGVWRSLLRLRATRAG,3.42
22,EPAGSLRMLGVWRSLLRLRATRAG,1.73

row,Variant,protein stability index
1,EPAGSLRDLGVWRSLLRLRATRAG,3.43
2,EPAGSLRPLGVWRSLLRLRATRAG,2.93
3,EPAGSLRFLGVWRSLLRLRATRAG,2.9
4,EPAGSLRILGVWRSLLRLRATRAG,1.57
5,EPAGSLRRLGVWRSLLRLRATRAG,2.06
6,EPAGSLRSLGVWRSLLRLRATRAG,2.49
7,EPAGSLRTLGVWRSLLRLRATRAG,2.1
8,EPAGSLRNLGVWRSLLRLRATRAG,3
9,EPAGSARELGVWRSLLRLRATRAG,3.35
10,EPAGSTRELGVWRSLLRLRATRAG,2.83
11,EPAGSKRELGVWRSLLRLRATRAG,2.36
12,EPAGSCRELGVWRSLLRLRATRAG,2.17
13,EPAGSMRELGVWRSLLRLRATRAG,2.45
14,EPAGSSRELGVWRSLLRLRATRAG,2.95
15,EPAGSWRELGVWRSLLRLRATRAG,2.39
16,EPAGSIRELGVWRSLLRLRATRAG,2.2
17,EPAGSLRELIVWRSLLRLRATRAG,1.86
18,EPAGSLRELWVWRSLLRLRATRAG,1.67
19,EPAGSLRELDVWRSLLRLRATRAG,2.99
20,EPAGSLRELSVWRSLLRLRATRAG,3.18
21,EPAGSLRELMVWRSLLRLRATRAG,1.99
22,EPAGSLRELNVWRSLLRLRATRAG,4.3

row,Variant,protein stability index
1,EPAGSLRELLVWRSLLRLRATRAG,2.02
2,EPAGSLRELTVWRSLLRLRATRAG,2.9
3,EPAGSLRELHVWRSLLRLRATRAG,3.78
4,LPAGSLRELGVWRSLLRLRATRAG,2.31
5,RPAGSLRELGVWRSLLRLRATRAG,2.25
6,NPAGSLRELGVWRSLLRLRATRAG,2.09
7,IPAGSLRELGVWRSLLRLRATRAG,1.91
8,TPAGSLRELGVWRSLLRLRATRAG,1.84
9,MPAGSLRELGVWRSLLRLRATRAG,1.91
10,FPAGSLRELGVWRSLLRLRATRAG,2.41
11,PPAGSLRELGVWRSLLRLRATRAG,2.25
12,EPAGSLRELGDWRSLLRLRATRAG,3.74
13,EPAGSLRELGRWRSLLRLRATRAG,2.25
14,EPAGSLRELGAWRSLLRLRATRAG,2.61
15,EPAGSLRELGIWRSLLRLRATRAG,2.5
16,EPAGSLRELGLWRSLLRLRATRAG,2.17
17,EPAGSLRELGNWRSLLRLRATRAG,3.27
18,EPAGSLRELGKWRSLLRLRATRAG,3.37
19,EPAGSLRELGHWRSLLRLRATRAG,3.11

# Variants of: B2
# Assay: as above
# Settings: c terminus: a fixed tail appended
row,Variant,protein stability index
1,YPHCTGISQQDPESDSQGQTNGLF,3.33
2,YPHCTGISQQDPESDSQGQYNGLF,2.03
3,YPHCTGISQQDPESDSQGQWNGLF,2.35
4,YPHCTGISQQDPESDSQGQVNGLF,3.44
5,YPHCTGISQQDPESDSQGQSNGLF,3.79
6,YPHCTGISQQDPESDSQGQGNELF,3.76
7,YPHCTGISQQDPESDSQGQGNILF,3.22
8,YPHCTGISQQDPESDSQGQGNMLF,2.96
9,YPHCTGISQQDPESDSQGQGNNLF,2.91
10,YPHCTGISQQDPESDSQGQGNYLF,3.03
11,YPHCTGISQQDPESDSQGQGNWLF,2.04
12,YPHCTGISQQDPESDSQGQGNLLF,2.87
13,YPHCTGISQQDPESDSQGQGNHLF,2.97
14,YPHCTGISQQDPESDSQGQGNQLF,3.44
15,YPHCTGISQQDPESDSQGQGNDLF,4.03
16,YPHCTGISQQDPESDSQGQGNKLF,3.96
17,YPHCTGISQQDPESDSQGQGNSLF,3.57
18,YPHCTGISQQDPESDSQGQGNVLF,3.73
19,YPHCTGISQQDPESDSQGQGNFLF,2.94
20,YPHCTGISQQDPESDSQGQGNALF,3.78
21,YPHCTGISQQDPESDSQGQGNPLF,3.95

row,Variant,protein stability index
1,YPHCTGISQQDPESDSQGQGNCLF,3.16
2,YPHCTGISQQDPESDSQGQGNRLF,3.78
3,YPHCTGISQQDPESDSQGQGNTLF,3.65
4,YPHCTGISQQDPESDSQGQGKGLF,3.77
5,YPHCTGISQQDPESDSQGQGEGLF,4.86
6,YPHCTGISQQDPESDSQGQGYGLF,3.02
7,YPHCTGISQQDPESDSQGQGFGLF,2.62
8,YPHCTGISQQDPESDSQGQGQGLF,4.07
9,YPHCTGISQQDPESDSQGQGDGLF,4.5
10,YPHCTGISQQDPESDSQGQGAGLF,3.83
11,YPHCTGISQQDPESDSQGQGVGLF,3.54
12,YPHCTGISQQDPESDSQGQGGGLF,3.5
13,YPHCTGISQQDPESDSQGQGCGLF,3.65
14,YPHCTGISQQDPESDSQGQGLGLF,3.41
15,YPHCTGISQQDPESDSQGQGWGLF,2.35
16,YPHCTGISQQDPESDSQGQGMGLF,3.35
17,YPHCTGISQQDPESDSQGQGSGLF,3.78
18,YPHCTGISQQDPESDSQGQGHGLF,3.75
19,YPHCTGISQQDPESDSQGQGTGLF,4.04
20,YPHCTGISQQDPESDSQGQGPGLF,3.99
21,YPHCTGISQQDPESDSQGQGIGLF,3.25

row,Variant,protein stability index
1,YPHCTGISQQDPESDSQGQGRGLF,3.55
2,YPHCTGISQQDPESDSQGQGNGLE,5
3,YPHCTGISQQDPESDSQGQGNGLT,5.13
4,YPHCTGISQQDPESDSQGQGNGLC,4.73
5,YPHCTGISQQDPESDSQGQGNGLR,5.01
6,YPHCTGISQQDPESDSQGQGNGLQ,5
7,YPHCTGISQQDPESDSQGQGNGLY,3.87
8,YPHCTGISQQDPESDSQGQGNGLN,5.06
9,YPHCTGISQQDPESDSQGQGNGLA,3.89
10,YPHCTGISQQDPESDSQGQGNGLG,4.82
11,YPHCTGISQQDPESDSQGQGNGLH,4.81
12,YPHCTGISQQDPESDSQGQGNGLM,4.55
13,YPHCTGISQQDPESDSQGQGNGLD,4.44
14,YPHCTGISQQDPESDSQGQGNGLL,4.77
15,YPHCTGISQQDPESDSQGQGNGLP,4.64
16,YPHCTGISQQDPESDSQGQGNGLV,4.41
17,YPHCTGISQQDPESDSQGQGNGLS,5.04
18,YPHCTGISQQDPESDSQGQGNGLK,5.12
19,YPHCTGISQQDPESDSQGQGNGLW,2.23
20,YPHCTGISQQDPESDSQGQGNGLI,4.82
21,YPHCTGISQQDPESDSQGQGNGPF,4.48

row,Variant,protein stability index
1,YPHCTGISQQDPESDSQGQGNGAF,4.35
2,YPHCTGISQQDPESDSQGQGNGCF,4.62
3,YPHCTGISQQDPESDSQGQGNGQF,4.75
4,YPHCTGISQQDPESDSQGQGNGDF,4.93
5,YPHCTGISQQDPESDSQGQGNGMF,4.21
6,YPHCTGISQQDPESDSQGQGNGIF,3.97
7,YPHCTGISQQDPESDSQGQGNGNF,4.38
8,YPHCTGISQQDPESDSQGQGNGRF,4.63
9,YPHCTGISQQDPESDSQGQGNGEF,5.27
10,YPHCTGISQQDPESDSQGQGNGKF,4.76
11,YPHCTGISQQDPESDSQGQGNGWF,2.97
12,YPHCTGISQQDPESDSQGQGNGVF,3.87
13,YPHCTGISQQDPESDSQGQGNGGF,4.99
14,YPHCTGISQQDPESDSQGQGNGTF,4.71
15,YPHCTGISQQDPESDSQGQGNGHF,4.89
16,YPHCTGISQQDPESDSQGQGNGSF,4.6
17,YPHCTGISQQDPESDSQGQGNGYF,4.26
18,YPHCTGISQQDPESDSQGQGNGFF,3.15
